# Measured values: patent US20240069033A1 (Chugai, published 2024)
# No end group written: not given here. puromycin linker = puromycin spacer joining the C-terminus of the translated peptide to its mRNA (mRNA display); mRNA = not defined here
# T1: biotinylated splitNanoluc1-8
# T1 chain: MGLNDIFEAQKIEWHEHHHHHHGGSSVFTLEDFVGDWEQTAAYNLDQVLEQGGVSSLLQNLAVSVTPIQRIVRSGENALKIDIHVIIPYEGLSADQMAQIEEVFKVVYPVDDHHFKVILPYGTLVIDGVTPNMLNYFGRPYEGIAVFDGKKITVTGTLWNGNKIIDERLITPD
# Legend:
# [1] = target: T1, biotinylated splitNanoluc1-8; assay: mRNA display pull-down with biotinylated splitNanoluc1-8, qPCR
# Experimental: (§1) Each Display molecule before reacting with biotinylated splitNanoluc1-8 was also subjected to qPCR in the same way, and the input nucleic acid amount was calculated.
# [2] = target: T1, biotinylated splitNanoluc1-8; assay: mRNA display pull-down with biotinylated splitNanoluc1-8 on streptavidin beads, qPCR
# Experimental: as §1
Binder,fold lower recovery rate than the splitNanoluc9-10 fusion peptide [1] [times],binding result [2]
"MGSMLFRVTINSGSGSGSGSENLYFQGKK-{puromycin linker-mRNA} (reading uncertain; also: mRNA reverse transcribed before assay, mRNA display molecule) [splitNanoluc-9]",≥ 300,no binding
"MVSGWRLFKKISGSGSGSGSENLYFQGKK-{puromycin linker-mRNA} (reading uncertain; also: mRNA reverse transcribed before assay, mRNA display molecule) [splitNanoluc-10]",≥ 300,no binding
